Assay results as given in US20190161551A1 (Regeneron, published 2019).

B1: M2aM14173N (antibody, mouse IgG2a, kappa, V domains shown)
VH: NVSLVESGGGSVKPGGSLQLSCAASGFTFSSSAMSWIRQTPEMRLEWVATISDRGSYTYYPDSVEGRFTISRDNAKNILYLQMSHLMSEDTAMYYCARGKGEKAYYTAFFAYWGQGSLVTVSA
VL: DIQMTQSPASLSASVGETVTITCRASENIYSYLAWYQQKPGKSPHLLVHNAETLAEGVPSRFSGSGSGPQFSLKINSLQPGDSGTYYCQHHYSSPWTFGGGTKLEIKR
notes: Anti-mouse TrkB antibody from hybridoma, mouse IgG2a Fc; also called surrogate anti-mouse TrkB antibody
B2: H4H9814P (antibody, human IgG4 S228P, kappa, V domains shown)
VH: EVQLVESGGGLVQPGGSLKLSCTASGFTFSGSVIHWVRQASGKGLEWIGRIRNKANSYATAYGASVTGRFTISRDDSKNTAYLQMNSLKTEDTAVYYCTFPGVVGRGGFDYWGQGTLVTVSS
VL: DIVMTQSPDSLAVSLGEGATINCMSSQSVLFSSNNKNYLAWYQQKPGQPPKLLFYWASTRESGVPDRFGGSGSGTDFSLTINSLQTEDVAVYYCLQYYSIPWTFGQGTKVEIKR
notes: Fully human anti-human TrkB agonist antibody, human IgG4 Fc; also called H4H9814P-L1
B3: H4H9816P2 (antibody, human IgG4 S228P, kappa, V domains shown)
VH: EVQLVESGGGLVQPGGSLTLSCAASGFNFRDYEMIWVRQTPGKGLEWISYISNSGYTIYYADSVKGRFTISRDNARNSIYLQVNSLRAEDTAVYYCSRRTTMIRGIRAYYYYGLDVWGQGTTVTVSS
VL: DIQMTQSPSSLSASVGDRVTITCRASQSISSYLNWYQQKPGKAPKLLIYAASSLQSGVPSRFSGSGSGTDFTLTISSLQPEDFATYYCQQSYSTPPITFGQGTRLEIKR
notes: Fully human anti-human TrkB agonist antibody, human IgG4 Fc; also called H4H9816P-L1
B4: H4H9780P (antibody, human IgG4 S228P, kappa, V domains shown)
VH: QVQLVESGGGVVQPGRSLRLSCAASGFSFSSFGMHWVRQAPGKGLEWVSVISYDGINTYYTDSVKGRFTISRDNSKNTLYLQMNGLRAEDTALYYCVQGSIGTVFEYWGQGTLVTVSS
VL: DIQMTQSPSSLSASVGDRVTITCRASQGISNYLAWYQQKPGKVPKLLIYAASTLQSGVPSRFGGSGSGTDFTLTISSLQPEDVATYYCQKYTSAPFTFGPGTKVDIKR
notes: Fully human anti-human TrkB agonist antibody, human IgG4 Fc; also called H4H9780P-L1
B5: M2aM14179N (antibody, mouse IgG2a, kappa, V domains shown)
VH: EVQLQQSGPELVKPGASVKISCKASGYTLTDYYMNWVKQSHGKSLEWIGDINPNNGGTSYNQKFKGKATLTVDKSSSTAYMELRSLTSEDSAVYYCARGAYYSNYFDYWGQGTTLTVSS
VL: DIVMSQSPSSLAVSAGEKVTMSCKSSQSLLNSRTRKNYLAWYQQKPGQSPKLLIYWASTRESGVPDRFTGSGSGTDFTLTISSVQAEDLAVYYCKQSYILFTFGSGTQLEIKR
notes: as for B1
B6: H1M8037C (antibody, mouse IgG1, kappa, V domains shown)
VH: QVQLVQSGAEVKKPGASVKVSCKASGYTFTNYDIIWVRQAPGQGLEWMGYINPYNDGTKYNEKFKGRVTMTRDTSTSTVYMELSSLRSEDTAVYYCARLLKYRRFRYYAIDYWGQGTTVTVSS
VL: DIQMTQSPSSLSASVGDRVTITCRTSENVYSNLAWYQQKPGKAPKLLIYAASNLQSGVPSRFSGSGSGTDYTFTISSLQPEDIATYYCQHFWGSPFTFGQGTKLEIKR
notes: captured by anti-mFc in SPR; also called Comparator; comparator anti-TrkB monoclonal antibody

How the values were obtained:
mouse TrkB.hFc [1] = target: T1, mouse TrkB.hFc (mouse); assay: BLI Octet, captured mTrkB.hFc, 300 nM mAb (BDNF run)
T1 construct: also called mTrkB.hFc; mTrkB-hFc
Method: (§1) Blocking of BDNF or NT-4 from binding to TrkB by anti-human TrkB or anti-mouse TrkB antibodies was evaluated using a real-time bio-layer interferometry (BLI) based Octet HTX instrument. The entire study was performed in 10 mM HEPES pH 7.4, 300 mM NaCl, 3 mM EDTA, 1 mg/mL BSA, 0.02% NaN3 and 0.05% v/v Surfactant Tween-20 (HBS-EBT running buffer) at 25° C. All the samples were dispensed in a 384 tilted well plate and the plate was placed on the orbital shaker with the shake speed of 1000 rpm. hTrkB.mFc was captured on anti-mFc (AMC) Octet sensors while hTrkB.hFc or mTrkB.hFc were captured on anti-hFc (AHC) Octet sensors by dipping in wells containing 10 μg/mL of TrkB reagents for 2 minutes. hTrkB.mFc or hTrkB.hFc captured Octet biosensors were saturated by dipping in wells containing 300 nM of different TrkB mAbs for 4 minutes followed by dipping Octet biosensors in wells containing 20 nM of BDNF, hNT-4, or mNT-4 for 2 minutes. Binding of BDNF, hNT-4, or mNT-4 to the complex of TrkB and different TrkB mAbs was determined using Scrubber 2.0c analysis software.

mouse TrkB.hFc [2] = target: T1, mouse TrkB.hFc; assay: BLI Octet, captured mTrkB.hFc, 300 nM mAb (NT-4 run)
Method: as §1

[3] = target: T2, rat TrkB extracellular domain expressed with a C-terminal myc-myc-hexahistidine tag (rat, UniProt Q63604 32-429); assay: blocking ELISA, rat TrkB.mmh pre-mixed with mAb, plate-coated BDNF
T2 construct: also called rTrkB.mmH; rTRKB.mmH
Method: (§2) Experiments were carried out using the following procedure. Human BDNF was coated at a concentration of 0.5 μg/mL (for blocking mouse TrkB.hFc interaction) or 0.3 μg/mL (for blocking rat TrkB.mmh interaction) in PBS on 96-well microtiter plate and incubated overnight at 4° C. […] In a 96-well dilution plate, 850 pM mouse TrkB.hFc or rat TrkB.mmh was mixed with the three-fold serially diluted anti-mouse TrkB antibodies and control antibody. The final antibody concentrations ranged from 1.69 pM to 100 nM. The protein-antibody mix was incubated at room temperature (RT) for 1 hour. The pre-bound mix was then transferred in duplicates to microtiter plates coated with BDNF. A control containing assay buffer alone was included to calculate the baseline of the assay. The ELISA plates were incubated at RT for 1 hour and then washed with plate washing solution. Plate-bound mouse TrkB.hFc was detected with HRP-conjugated goat anti-human Fcγ fragment specific antibody (Jackson Immunoresearch) and rat TrkB.mmh was detected with HRP-conjugated anti-histidine antibody (Qiagen). The plates were incubated with detection antibody for 1 hour at RT and then washed with plate washing solution. The assay plates were developed with TMB colorimetric substrates according to the manufacturer's recommended procedure.
(§3) The absorbance at 450 nm for each well was recorded and plotted as a function of the concentration of antibody. Data was analyzed in GraphPad Prism software using a four-parameter logistic equation over an 11-point dose response curve and IC₅₀ values were calculated. […] Percent blockade at maximum concentration of the antibody tested was calculated as an indicator of the ability of the antibodies to block the binding of TrkB to BDNF on the plate relative to the baseline of the assay. Binding signal of 850 pM mouse or rat TrkB in absence of the antibody was defined as 100% binding or 0% blocking. The baseline signal of assay buffer alone was defined as 0% binding or 100% blocking.

mouse TrkB.hFc [4] = target: T1, mouse TrkB.hFc; assay: blocking ELISA, mouse TrkB.hFc pre-mixed with mAb, plate-coated BDNF
Method: as §2, §3

[5] = target: T3, human TrkB extracellular domain (aa Cys32-His430) expressed with the Fc portion of human IgG1 at the … (human); assay: competition ELISA, 500 pM hTrkB-hFc pre-mixed with mAb, plate-coated hBDNF
T3 construct: also called hTrkB-hFc; hTrkB.hFc
Method: Experiments were carried out using the following procedure. Human BDNF or NT-4 were separately coated at a concentration of 0.5 μg/mL or 2 μg/mL, respectively, in PBS on a 96-well microtiter plate overnight at 4° C. […] Blocking solution and dilution buffer contained 5% (w/v) solution of BSA in PBS for assay with BDNF coat, or 0.5% (w/v) solution of BSA in PBS for assay with NT-4 coat. On separate microtiter plates, a constant amount of 500 pM of hTrkB-hFc protein was added to serial dilutions of antibodies with final concentrations ranging from 1.7 pM to 100 nM, and solutions with no antibody present. (The constant concentration of hTrkB-hFc for antibody inhibition assays was selected from the approximate midway point within the linear portion of individual binding curves of hTrkB-hFc to plate-coated hBDNF or hNT-4). After one hour incubation at room temperature, antibody-protein complexes with 500 pM constant concentration of hTrkB-hFc protein were transferred to microtiter plates coated with hBDNF or hNT-4. After one hour incubation at room temperature, the wells were washed, and plate-bound hTrkB-hFc was detected with anti-human Fcγ fragment specific goat polyclonal antibodies conjugated with horseradish peroxidase (JacksonImmunoResearch). The plate was then developed using TMB substrate solution (BD Biosciences) according to manufacturer's recommendation and absorbance at 450 nm was measured on a Victor plate reader (PerkinElmer™).
The ability of anti-TrkB antibodies to block TrkB binding to BDNF or NT-4 was assessed using two competition sandwich ELISAs. Human TrkB-hFc binding to hBDNF or hNT-4 coated on 96-well microtiter plates, in the presence of serially diluted antibodies or no antibody controls, were detected with HRP-conjugated anti-human Fcγ fragment specific goat polyclonal antibodies. IC₅₀ values were calculated and used as the potency indicator of antibody blocking hTrkB-hFc binding to hBDNF or hNT-4. In addition, the maximum blockade of 500 pM hTrkB-hFc with each antibody at the highest tested concentration was calculated and compared.

T2 sequence (Q63604 other isoform, or with tags, fused parts or gaps): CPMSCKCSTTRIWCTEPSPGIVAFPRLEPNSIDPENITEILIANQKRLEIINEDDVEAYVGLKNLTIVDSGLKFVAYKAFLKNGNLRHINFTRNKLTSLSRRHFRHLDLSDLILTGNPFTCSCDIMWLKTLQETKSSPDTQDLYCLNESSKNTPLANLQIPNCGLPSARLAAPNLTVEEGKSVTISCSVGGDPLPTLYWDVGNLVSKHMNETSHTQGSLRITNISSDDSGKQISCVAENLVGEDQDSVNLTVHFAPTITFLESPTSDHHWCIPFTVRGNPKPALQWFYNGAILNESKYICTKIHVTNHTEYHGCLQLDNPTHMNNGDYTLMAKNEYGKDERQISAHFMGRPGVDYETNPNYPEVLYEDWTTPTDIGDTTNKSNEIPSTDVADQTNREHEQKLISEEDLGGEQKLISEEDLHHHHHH
T3 sequence (chain, as listed by the source limits assumed): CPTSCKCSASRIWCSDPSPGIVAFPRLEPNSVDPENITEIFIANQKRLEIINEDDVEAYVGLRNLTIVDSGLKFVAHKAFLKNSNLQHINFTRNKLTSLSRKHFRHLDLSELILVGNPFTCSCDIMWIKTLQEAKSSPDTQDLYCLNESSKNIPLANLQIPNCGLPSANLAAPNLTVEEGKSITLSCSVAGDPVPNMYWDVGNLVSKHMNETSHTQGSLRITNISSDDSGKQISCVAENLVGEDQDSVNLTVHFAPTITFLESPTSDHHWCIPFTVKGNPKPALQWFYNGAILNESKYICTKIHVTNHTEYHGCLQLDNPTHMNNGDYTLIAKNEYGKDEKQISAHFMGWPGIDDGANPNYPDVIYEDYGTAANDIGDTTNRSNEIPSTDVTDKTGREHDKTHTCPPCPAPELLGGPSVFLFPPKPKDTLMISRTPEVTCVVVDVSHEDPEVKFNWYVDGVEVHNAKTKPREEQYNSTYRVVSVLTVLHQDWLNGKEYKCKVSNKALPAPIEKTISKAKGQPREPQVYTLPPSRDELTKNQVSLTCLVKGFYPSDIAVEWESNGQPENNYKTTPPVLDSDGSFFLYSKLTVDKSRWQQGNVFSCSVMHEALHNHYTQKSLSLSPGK
T1 sequence (chain, as listed by the source limits assumed): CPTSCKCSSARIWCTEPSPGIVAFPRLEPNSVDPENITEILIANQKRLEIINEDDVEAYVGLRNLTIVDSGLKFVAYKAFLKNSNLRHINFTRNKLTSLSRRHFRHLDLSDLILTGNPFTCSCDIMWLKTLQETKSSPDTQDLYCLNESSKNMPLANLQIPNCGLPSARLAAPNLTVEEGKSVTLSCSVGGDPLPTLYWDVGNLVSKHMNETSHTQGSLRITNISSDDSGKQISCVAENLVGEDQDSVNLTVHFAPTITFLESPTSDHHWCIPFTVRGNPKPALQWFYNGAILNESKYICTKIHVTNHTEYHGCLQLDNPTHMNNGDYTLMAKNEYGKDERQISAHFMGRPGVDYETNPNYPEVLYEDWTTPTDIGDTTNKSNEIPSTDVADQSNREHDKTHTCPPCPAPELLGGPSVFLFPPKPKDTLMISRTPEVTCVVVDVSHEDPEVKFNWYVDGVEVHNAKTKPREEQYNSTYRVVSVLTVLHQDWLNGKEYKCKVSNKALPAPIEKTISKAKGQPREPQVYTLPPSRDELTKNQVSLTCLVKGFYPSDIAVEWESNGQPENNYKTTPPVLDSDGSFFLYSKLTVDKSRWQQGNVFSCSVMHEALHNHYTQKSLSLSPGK

Binder | mAb Binding (nm) (mouse TrkB.hFc [1]) | mAb Binding (nm) (mouse TrkB.hFc [2]) | % Blockade with 100 nM antibody [3] | IC50 [3] | % Blockade with 100 nM antibody (mouse TrkB.hFc [4]) | % Blockade with 100 nM antibody [5] | IC50 [5] | IC50 (mouse TrkB.hFc [4])
B1 | 0.42 nm | 0.413 nm | 80.7% | 3810 pM | 29.7% |  |  | 
B2 |  |  |  |  |  | 6% |  | 
B3 |  |  |  |  |  | -56% |  | 
B4 |  |  |  |  |  | 93% | 150 pM | 
B5 | 0.42 nm | 0.41 nm | -38.1% |  | 11.6% |  |  | 
B6 | 0.42 nm | 0.4 nm | 83.3% | 1420 pM | 91.5% | 97% | 170 pM | 180 pM
